The record followed here is US20210060068A1 (published 2021).

Targets include 177; 165; 182; 170; 148; 157; 176; 145; 150; 149; 162; 151; 180; 146; 147; 161; 163; 160; 181; 175; 172.
Common to all, as to assay: SPR
For a further test, the target named is T1, wild-type mouse IL-2Rβ (UniProt P16297 27-240).
T1 chain: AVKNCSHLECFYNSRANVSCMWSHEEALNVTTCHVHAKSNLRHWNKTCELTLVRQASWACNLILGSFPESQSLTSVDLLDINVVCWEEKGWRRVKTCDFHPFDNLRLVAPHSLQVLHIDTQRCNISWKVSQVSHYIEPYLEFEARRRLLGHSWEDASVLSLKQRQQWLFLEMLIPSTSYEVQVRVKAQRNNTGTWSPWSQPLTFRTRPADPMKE

Changes are numbered by the printed parent chain.

B1: wild-type mouse IL-2 (ligand)
chain: APTSSSTSSSTAEAQQQQQQQQQQQQHLEQLLMDLQELLSRMENYRNLKLPRMLTFKFYLPKQATELKDLQCLEDELGPLRHVLDLTQSKSFQLEDAENFISNIRVTVVKLKGSDNTFECQFDDESATVVDFLRRWIAFCQSIISTSPQ
In the test with wild-type mouse IL-2Rβ, B1 displayed a Kd of 4000 nM.

B2: orthoIL-2Rβ (receptor)
chain: T1 chain with H134D, Y135F
On to B2, for which the Kd with 177 turned out to be 3000 nM; with 165, 1000 nM; with 182, 3000 nM; with 170 it was 2000 nM; with 148, 4000 nM; in the test with 157 it was 4000 nM. The Kd with 176 amounted to 1000 nM; with 145, 4000 nM; with 150, 3000 nM; in the test with 149, 4000 nM; in the test with 162, 3000 nM; in the test with 151, 2000 nM. Besides, the Kd in the test with 180 is 6000 nM; with 146, 600 nM; with 147 it was 8000 nM; in the test with 161 it was 3000 nM; with 163, 1000 nM; in the test with 160, 1000 nM. The values for the Kd with 181, in the test with 175 and with 172 were 5000 nM, 4000 nM and 2000 nM, respectively.

What is called Kd is the constant that tells how readily two partners part at equilibrium. The low end stands for higher affinity, the high end for lower affinity.
